Data taken from US20190276511A1 (BIONTECH RNA PHARMACEUTICALS, published 2019).

T1: OX40 receptor on cells (human, UniProt P43489 29-277)
T1 sequence (looked up): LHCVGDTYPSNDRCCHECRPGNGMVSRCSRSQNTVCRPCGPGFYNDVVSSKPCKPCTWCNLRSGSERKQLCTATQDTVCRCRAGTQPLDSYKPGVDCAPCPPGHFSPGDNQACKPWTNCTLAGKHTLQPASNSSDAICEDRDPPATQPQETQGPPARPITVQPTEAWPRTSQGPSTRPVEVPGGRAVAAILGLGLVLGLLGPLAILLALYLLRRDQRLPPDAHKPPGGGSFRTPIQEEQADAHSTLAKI

T2: OX40-Fc (human, UniProt P43489 29-214)
T2 construct: extracellular domain; hinge included for covalent assembly; also called OX40 receptor-Fc fusion protein; not shown: human Fc gamma 1 region including the hinge region
T2 sequence (looked up): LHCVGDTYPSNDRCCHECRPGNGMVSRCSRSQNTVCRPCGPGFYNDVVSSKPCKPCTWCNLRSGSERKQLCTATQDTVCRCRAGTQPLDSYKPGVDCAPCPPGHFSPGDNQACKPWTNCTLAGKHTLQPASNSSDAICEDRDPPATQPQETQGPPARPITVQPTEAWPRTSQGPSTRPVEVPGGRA

T3: CD27-Fc (human, UniProt P26842 20-191)
T3 construct: extracellular domain; hinge included for covalent assembly; also called CD27 receptor-Fc fusion protein; not shown: human Fc gamma 1 region including the hinge region
T3 sequence (looked up): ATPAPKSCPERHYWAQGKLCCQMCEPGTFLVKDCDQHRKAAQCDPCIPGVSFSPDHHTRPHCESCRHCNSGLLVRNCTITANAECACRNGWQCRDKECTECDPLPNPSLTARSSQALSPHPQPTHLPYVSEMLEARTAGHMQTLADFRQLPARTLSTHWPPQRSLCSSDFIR


What was measured:
[1] = target: 4-1BB receptor on cells (human, UniProt Q07011 24-255); assay: cell-based or functional assay
Sequence of 4-1BB receptor on cells (Q07011 24-255): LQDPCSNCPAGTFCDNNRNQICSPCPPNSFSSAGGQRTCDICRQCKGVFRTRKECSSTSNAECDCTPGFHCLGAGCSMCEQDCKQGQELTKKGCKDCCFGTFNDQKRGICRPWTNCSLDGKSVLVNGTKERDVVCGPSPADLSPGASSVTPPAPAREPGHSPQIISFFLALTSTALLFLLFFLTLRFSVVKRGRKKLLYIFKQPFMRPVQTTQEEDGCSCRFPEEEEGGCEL

[2] = target: T1, OX40 receptor on cells; assay: cell-based or functional assay
[3] = target: T2, OX40-Fc; assay: ELISA, coated receptor-Fc
[4] = target: T4, 4-1BB-Fc (human, UniProt Q07011 24-186); assay: ELISA, coated receptor-Fc
T4 construct: extracellular domain; hinge included for covalent assembly; also called 4-1BB receptor-Fc fusion protein; not shown: human Fc gamma 1 region including the hinge region

[5] = target: T3, CD27-Fc; assay: ELISA, coated receptor-Fc
[6] = target: T5, CD40-Fc (human, UniProt P25942 21-193); assay: ELISA, coated receptor-Fc
T5 construct: extracellular domain; hinge included for covalent assembly; also called CD40 receptor-Fc fusion protein; not shown: human Fc gamma 1 region including the hinge region
T5 sequence (P25942 21-193 limits assumed): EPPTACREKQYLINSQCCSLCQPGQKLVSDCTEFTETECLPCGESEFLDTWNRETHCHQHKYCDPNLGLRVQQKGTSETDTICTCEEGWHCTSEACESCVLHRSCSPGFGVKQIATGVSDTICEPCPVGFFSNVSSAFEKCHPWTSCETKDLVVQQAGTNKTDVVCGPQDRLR

[7] = target: T3, CD27-Fc; assay: ELISA, coated receptor-Fc; remark: listed apart in the source
Procedure: (§1) Receptor binding of the EHD2-scDuokines was analyzed by ELISA using fusion proteins of the extracellular region of CD40, CD27 and 4-1BB, respectively, with the human Fcγ1 region including the hinge region for covalent assembly (CD40-Fc, CD27-Fc, 4-1BB-Fc). Receptor-Fc fusion proteins (200 ng/well) were coated overnight at 4° C. and remaining binding sites were blocked with PBS, 2% skimmed milk powder (2% MPBS).

[8] = target: T5, CD40-Fc; assay: ELISA, coated receptor-Fc; remark: listed apart in the source
Procedure: as §1

[9] = target: CD40 receptor on cells (human, UniProt P25942 21-277); assay: cell-based or functional assay
Sequence of CD40 receptor on cells (P25942 21-277): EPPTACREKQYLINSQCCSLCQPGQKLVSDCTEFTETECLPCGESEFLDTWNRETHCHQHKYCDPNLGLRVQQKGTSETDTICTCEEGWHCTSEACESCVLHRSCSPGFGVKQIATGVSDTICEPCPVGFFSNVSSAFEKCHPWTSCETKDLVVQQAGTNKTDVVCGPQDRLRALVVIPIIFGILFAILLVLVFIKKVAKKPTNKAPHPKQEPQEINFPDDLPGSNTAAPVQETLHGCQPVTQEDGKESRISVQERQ

[10] = target: T4, 4-1BB-Fc; assay: ELISA, coated receptor-Fc; remark: listed apart in the source

| Receptor activation (EC50, nM) [1] [nM] | Receptor activation (EC50, nM) [2] [nM] | EC50 [3] [nM] | EC50 [4] [nM] | binding result [5] | binding result [6] | EC50 [7] [nM] | EC50 [8] [nM] | Receptor activation (EC50, nM), IL-8 release from HT1080 cells [9] [nM] | binding result [10] | Binder |
| --- | --- | --- | --- | --- | --- | --- | --- | --- | --- | --- |
| 2.83 | 0.56 | 347 | 4.61 | no binding (tested: 100 nM (FIG. 10)) | no binding (tested: 100 nM (FIG. 10)) | – | – | – | – | scOX40L-sc4-1BBL (ligand, scDuokine from HEK293; VH leader left out; also called single-chain Duokine scOX40L-sc4-1BBL; not shown: N-terminal FLAG tag) QVSHRYPRIQSIKVQFTEYKKEKGFILTSQKEDEIMKVQNNSVIINCDGFYLISLKGYFSQEVNISLHYQKDEEPLFQLKKVRSVNSLMVASLTYKDKVYLNVTTDNTSLDDFHVNGGELILIHQNPGEFCVLGGGSGGGQVSHRYPRIQSIKVQFTEYKKEKGFILTSQKEDEIMKVQNNSVIINCDGFYLISLKGYFSQEVNISLHYQKDEEPLFQLKKVRSVNSLMVASLTYKDKVYLNVTTDNTSLDDFHVNGGELILIHQNPGEFCVLGGGSGGGQVSHRYPRIQSIKVQFTEYKKEKGFILTSQKEDEIMKVQNNSVIINCDGFYLISLKGYFSQEVNISLHYQKDEEPLFQLKKVRSVNSLMVASLTYKDKVYLNVTTDNTSLDDFHVNGGELILIHQNPGEFCVLGGGGSGGGTGGGGSREGPELSPDDPAGLLDLRQGMFAQLVAQNVLLIDGPLSWYSDPGLAGVSLTGGLSYKEDTKELVVAKAGVYYVFFQLELRRVVAGEGSGSVSLALHLQPLRSAAGAAALALTVDLPPASSEARNSAFGFQGRLLHLSAGQRLGVHLHTEARARHAWQLTQGATVLGLFRVTPEIPAGLPSPRSEGGGGSGGGGSGGGGSREGPELSPDDPAGLLDLRQGMFAQLVAQNVLLIDGPLSWYSDPGLAGVSLTGGLSYKEDTKELVVAKAGVYYVFFQLELRRVVAGEGSGSVSLALHLQPLRSAAGAAALALTVDLPPASSEARNSAFGFQGRLLHLSAGQRLGVHLHTEARARHAWQLTQGATVLGLFRVTPEIPAGLPSPRSEGGGGSGGGGSGGGGSREGPELSPDDPAGLLDLRQGMFAQLVAQNVLLIDGPLSWYSDPGLAGVSLTGGLSYKEDTKELVVAKAGVYYVFFQLELRRVVAGEGSGSVSLALHLQPLRSAAGAAALALTVDLPPASSEARNSAFGFQGRLLHLSAGQRLGVHLHTEARARHAWQLTQGATVLGLFRVTPEIPAGLPSPRSE |
| – | – | – | – | – | – | 2.03 | 4.05 | 2 | no binding (tested: 100 nM (FIG. 16)) | scCD40L-EHD2-scCD27L (ligand, From HEK293; Ig kappa leader left out; dimer through EHD2, about 50% covalently linked, SEC major peak at monomer size; also called EHD2-scDuokine scCD40L-EHD2-scCD27L; not shown: N-terminal FLAG tag) GDQNPQIAAHVISEASSKTTSVLQWAEKGYYTMSNNLVTLENGKQLTVKRQGLYYIYAQVTFCSNREASSQAPFIASLCLKSPGRFERILLRAANTHSSAKPCGQQSIHLGGVFELQPGASVFVNVTDPSQVSHGTGFTSFGLLKLGGGSGGGGDQNPQIAAHVISEASSKTTSVLQWAEKGYYTMSNNLVTLENGKQLTVKRQGLYYIYAQVTFCSNREASSQAPFIASLCLKSPGRFERILLRAANTHSSAKPCGQQSIHLGGVFELQPGASVFVNVTDPSQVSHGTGFTSFGLLKLGGGSGGGGDQNPQIAAHVISEASSKTTSVLQWAEKGYYTMSNNLVTLENGKQLTVKRQGLYYIYAQVTFCSNREASSQAPFIASLCLKSPGRFERILLRAANTHSSAKPCGQQSIHLGGVFELQPGASVFVNVTDPSQVSHGTGFTSFGLLKLGGSGGDFTPPTVKILQSSCDGGGHFPPTIQLLCLVSGYTPGTINITWLEDGQVMDVDLSTASTTQEGELASTQSELTLSQKHWLSDRTYTCQVTYQGHTFEDSTKKCADSNGGSGGSLGWDVAELQLNHTGPQQDPRLYWQGGPALGRSFLHGPELDKGQLRIHRDGIYMVHIQVTLAICSSTTASRHHPTTLAVGICSPASRSISLLRLSFHQGCTIASQRLTPLARGDTLCTNLTGTLLPSRNTDETFFGVQWVRPGGGSGGGSLGWDVAELQLNHTGPQQDPRLYWQGGPALGRSFLHGPELDKGQLRIHRDGIYMVHIQVTLAICSSTTASRHHPTTLAVGICSPASRSISLLRLSFHQGCTIASQRLTPLARGDTLCTNLTGTLLPSRNTDETFFGVQWVRPGGGSGGGSLGWDVAELQLNHTGPQQDPRLYWQGGPALGRSFLHGPELDKGQLRIHRDGIYMVHIQVTLAICSSTTASRHHPTTLAVGICSPASRSISLLRLSFHQGCTIASQRLTPLARGDTLCTNLTGTLLPSRNTDETFFGVQWVRP |
